Measured values reported in paper doi:10.1101/2020.05.26.100743 (bioRxiv, 2020).

Legend:
Assay in all cases: SPR
[1] = molecular target: VH1 M60A mutant (His-MBP-VH1 fusion) (vaccinia virus Copenhagen strain, UniProt P20495 1-171, M60A)
[2] = molecular target: VH1 T59A mutant (His-MBP-VH1 fusion) (vaccinia virus Copenhagen strain, UniProt P20495 1-171, T59A)
[3] = molecular target: VH1 K22A mutant (His-MBP-VH1 fusion) (vaccinia virus Copenhagen strain, UniProt P20495 1-171, K22A)
[4] = molecular target: VH1 C110S mutant (His-MBP-VH1 fusion) (vaccinia virus Copenhagen strain, UniProt P20495 1-171, C110S)
[5] = molecular target: VH1 K20A mutant (His-MBP-VH1 fusion) (vaccinia virus Copenhagen strain, UniProt P20495 1-171, K20A)
[6] = molecular target: VH1 T25A mutant (His-MBP-VH1 fusion) (vaccinia virus Copenhagen strain, UniProt P20495 1-171, T25A)

Measured: binding result

VDADEYLIPQQ [EGFR pTyr peptide 986-VDADEpYLIPQQ-998 (11-mer)]
binds: all assays above
